Literature values, collected in PMC10979411.

Target: Nterm (UniProt position 44, ADPEAGIGAVL)
Assay: NMR
Conditions: micelle-associated melittin

Substance: Melittin (Apis mellifera (inferred; organism not stated in the article))
- pKa: 7.15–8.15
